# Test results from patent US20230212549A1 (3B PHARMACEUTICALS, published 2023).
# “And” between values parts separate entries of the source, which are not always exact repeats. Identical values can stand only once. Numbered stars: 1 amine (or outer) side, 2 acyl side, 3 side chain; on linkers, the order of the positions; unused ones are H or OH. Bridge positions count the residues as written; N and C are the ends. Square brackets hold non-standard residues; d marks the D form. * marks the point of attachment. DOTA = O=C(O)CN1CCN(CC(=O)O)CCN(CC(=O)*)CCN(CC(=O)O)CC1; Pro(trans-4-F) = O=C(O)[C@@H]1C[C@@H](F)CN1; Phe(4-Cl) = N[C@@H](Cc1ccc(Cl)cc1)C(=O)O; Phe(2-Cl) = N[C@@H](Cc1ccccc1Cl)C(=O)O; 2Nal = N[C@@H](Cc1ccc2ccccc2c1)C(=O)O; mXylylene = c1cc(C[*:1])cc(C[*:2])c1; NMeF = CN[C@@H](Cc1ccccc1)C(=O)O; 4Amb = NCc1ccc(C(=O)O)cc1; Hexanoyl = CCCCCC(=O)*; Aib = CC(C)(N)C(=O)O; βAla = NCCC(=O)O; Sar = CNCC(=O)O
# Key:
# [1] = target: Recombinant human FAP (R&D systems, #3715-SE) (human, UniProt Q12884 26-760); assay: cell-based or functional assay
# [2] = target: T1, fibroblast activation protein (FAP) on FAP-expressing human WI-38 fibroblasts (human, UniProt Q12884 1-760); assay: competitive FACS, WI-38 cells, vs Cy5 tracer m3; B = pIC50 7.1-8.0
# T1 construct: also called human FAP
# [3] = target: T1, fibroblast activation protein (FAP) on …; assay: competitive FACS, WI-38 cells, vs Cy5 tracer m3; C = pIC50 6.1-7.0
Binder,pIC50 Category (Activity) [1],pIC50 Category (FACS) [2],pIC50 Category (FACS) [3]
"Hexanoyl-CGPTEFC-NH2 (linker 1-7 via mXylylene; SMILES CCCCCC(=O)N[C@H]1CSCc2cccc(c2)CSC[C@@H](C(N)=O)NC(=O)[C@H](Cc2ccccc2)NC(=O)[C@H](CCC(=O)O)NC(=O)[C@H]([C@@H](C)O)NC(=O)[C@@H]2CCCN2C(=O)CNC1=O, also called 3BP-3345) [Hex-[Cys(3MeBn)-Gly-Pro-Thr-Glu-Phe-Cys]-NH2]",7.1 pIC50 and 8 pIC50,,6.1 pIC50 and 7 pIC50
"Hexanoyl-CPPTEFC-NH2 (linker 1-7 via mXylylene; SMILES CCCCCC(=O)N[C@H]1CSCc2cccc(c2)CSC[C@@H](C(N)=O)NC(=O)[C@H](Cc2ccccc2)NC(=O)[C@H](CCC(=O)O)NC(=O)[C@H]([C@@H](C)O)NC(=O)[C@@H]2CCCN2C(=O)[C@@H]2CCCN2C1=O, also called 3BP-3287) [Hex-[Cys(3MeBn)-Pro-Pro-Thr-Glu-Phe-Cys]-NH2]",7.1 pIC50 and 8 pIC50,,6.1 pIC50 and 7 pIC50
"Hexanoyl-C[Sar]PTEFC-NH2 (linker 1-7 via mXylylene; SMILES CCCCCC(=O)N[C@H]1CSCc2cccc(c2)CSC[C@@H](C(N)=O)NC(=O)[C@H](Cc2ccccc2)NC(=O)[C@H](CCC(=O)O)NC(=O)[C@H]([C@@H](C)O)NC(=O)[C@@H]2CCCN2C(=O)CN(C)C1=O, also called 3BP-3347) [Hex-[Cys(3MeBn)-Nmg-Pro-Thr-Glu-Phe-Cys]-NH2]",7.1 pIC50 and 8 pIC50,,6.1 pIC50 and 7 pIC50
"Ac-MCPPTEFCDHFAD-NH2 (linker 2-8 via mXylylene; SMILES CSCC[C@H](NC(C)=O)C(=O)N[C@H]1CSCc2cccc(c2)CSC[C@@H](C(=O)N[C@@H](CC(=O)O)C(=O)N[C@@H](Cc2c[nH]cn2)C(=O)N[C@@H](Cc2ccccc2)C(=O)N[C@@H](C)C(=O)N[C@@H](CC(=O)O)C(N)=O)NC(=O)[C@H](Cc2ccccc2)NC(=O)[C@H](CCC(=O)O)NC(=O)[C@H]([C@@H](C)O)NC(=O)[C@@H]2CCCN2C(=O)[C@@H]2CCCN2C1=O, also called 3BP-3197) [Ac-Met-[Cys(3MeBn)-Pro-Pro-Thr-Glu-Phe-Cys]-Asp-His-Phe-Ala-Asp-NH2]",6.1 pIC50 and 7 pIC50,,6.1 pIC50 and 7 pIC50
"Hexanoyl-CPPTE[Phe(4-Cl)]C-NH2 (linker 1-7 via mXylylene; SMILES CCCCCC(=O)N[C@H]1CSCc2cccc(c2)CSC[C@@H](C(N)=O)NC(=O)[C@H](Cc2ccc(Cl)cc2)NC(=O)[C@H](CCC(=O)O)NC(=O)[C@H]([C@@H](C)O)NC(=O)[C@@H]2CCCN2C(=O)[C@@H]2CCCN2C1=O, also called 3BP-3369) [Hex-[Cys(3MeBn)-Pro-Pro-Thr-Glu-Pcf-Cys]-NH2]",6.1 pIC50 and 7 pIC50,,6.1 pIC50 and 7 pIC50
"Hexanoyl-CP[Pro(trans-4-F)]TEFC-NH2 (linker 1-7 via mXylylene; SMILES CCCCCC(=O)N[C@H]1CSCc2cccc(c2)CSC[C@@H](C(N)=O)NC(=O)[C@H](Cc2ccccc2)NC(=O)[C@H](CCC(=O)O)NC(=O)[C@H]([C@@H](C)O)NC(=O)[C@@H]2C[C@@H](F)CN2C(=O)[C@@H]2CCCN2C1=O, also called 3BP-3352) [Hex-[Cys(3MeBn)-Pro-4Tfp-Thr-Glu-Phe-Cys]-NH2]",7.1 pIC50 and 8 pIC50,,6.1 pIC50 and 7 pIC50
"{DOTA}-[βAla]CPPTEFCDH[NMeF]RD-NH2 (linker 2-8 via mXylylene; SMILES C[C@@H](O)[C@@H]1NC(=O)[C@@H]2CCCN2C(=O)[C@@H]2CCCN2C(=O)[C@@H](NC(=O)CCNC(=O)CN2CCN(CC(=O)O)CCN(CC(=O)O)CCN(CC(=O)O)CC2)CSCc2cccc(c2)CSC[C@@H](C(=O)N[C@@H](CC(=O)O)C(=O)N[C@@H](Cc2c[nH]cn2)C(=O)N(C)[C@@H](Cc2ccccc2)C(=O)N[C@@H](CCCNC(=N)N)C(=O)N[C@@H](CC(=O)O)C(N)=O)NC(=O)[C@H](Cc2ccccc2)NC(=O)[C@H](CCC(=O)O)NC1=O, also called 3BP-3264) [DOTA-Bal-[Cys(3MeBn)-Pro-Pro-Thr-Glu-Phe-Cys]-Asp-His-Nmf-Arg-Asp-NH2]",7.1 pIC50 and 8 pIC50,7.1 pIC50 and 8 pIC50,
"Hexanoyl-CPPTE[Phe(2-Cl)]C-NH2 (linker 1-7 via mXylylene; SMILES CCCCCC(=O)N[C@H]1CSCc2cccc(c2)CSC[C@@H](C(N)=O)NC(=O)[C@H](Cc2ccccc2Cl)NC(=O)[C@H](CCC(=O)O)NC(=O)[C@H]([C@@H](C)O)NC(=O)[C@@H]2CCCN2C(=O)[C@@H]2CCCN2C1=O, also called 3BP-3368) [Hex-[Cys(3MeBn)-Pro-Pro-Thr-Glu-Ocf-Cys]-NH2]",7.1 pIC50 and 8 pIC50,,6.1 pIC50 and 7 pIC50
"Hexanoyl-CPPTE[2Nal]C-NH2 (linker 1-7 via mXylylene; SMILES CCCCCC(=O)N[C@H]1CSCc2cccc(c2)CSC[C@@H](C(N)=O)NC(=O)[C@H](Cc2ccc3ccccc3c2)NC(=O)[C@H](CCC(=O)O)NC(=O)[C@H]([C@@H](C)O)NC(=O)[C@@H]2CCCN2C(=O)[C@@H]2CCCN2C1=O, also called 3BP-3362) [Hex-[Cys(3MeBn)-Pro-Pro-Thr-Glu-2Ni-Cys]-NH2]",6.1 pIC50 and 7 pIC50,,6.1 pIC50 and 7 pIC50
"Ac-MC[Aib]PTEFCDHFRD-NH2 (linker 2-8 via mXylylene; SMILES CSCC[C@H](NC(C)=O)C(=O)N[C@H]1CSCc2cccc(c2)CSC[C@@H](C(=O)N[C@@H](CC(=O)O)C(=O)N[C@@H](Cc2c[nH]cn2)C(=O)N[C@@H](Cc2ccccc2)C(=O)N[C@@H](CCCNC(=N)N)C(=O)N[C@@H](CC(=O)O)C(N)=O)NC(=O)[C@H](Cc2ccccc2)NC(=O)[C@H](CCC(=O)O)NC(=O)[C@H]([C@@H](C)O)NC(=O)[C@@H]2CCCN2C(=O)C(C)(C)NC1=O, also called 3BP-3204) [Ac-Met-[Cys(3MeBn)-Aib-Pro-Thr-Glu-Phe-Cys]-Asp-His-Phe-Arg-Asp-NH2]",7.1 pIC50 and 8 pIC50,7.1 pIC50 and 8 pIC50,

# Further lines, results first:
pIC50 Category (Activity) [1],pIC50 Category (FACS) [2],pIC50 Category (FACS) [3],Binder
7.1 pIC50 and 8 pIC50,7.1 pIC50 and 8 pIC50,,"Ac-MCPPTEFC[dD]HFRD-NH2 (linker 2-8 via mXylylene; SMILES CSCC[C@H](NC(C)=O)C(=O)N[C@H]1CSCc2cccc(c2)CSC[C@@H](C(=O)N[C@H](CC(=O)O)C(=O)N[C@@H](Cc2c[nH]cn2)C(=O)N[C@@H](Cc2ccccc2)C(=O)N[C@@H](CCCNC(=N)N)C(=O)N[C@@H](CC(=O)O)C(N)=O)NC(=O)[C@H](Cc2ccccc2)NC(=O)[C@H](CCC(=O)O)NC(=O)[C@H]([C@@H](C)O)NC(=O)[C@@H]2CCCN2C(=O)[C@@H]2CCCN2C1=O, also called 3BP-3183) [Ac-Met-[Cys(3MeBn)-Pro-Pro-Thr-Glu-Phe-Cys]-asp-His-Phe-Arg-Asp-NH2]"
7.1 pIC50 and 8 pIC50,7.1 pIC50 and 8 pIC50,,"Ac-MCPP[dT]EFCDHFRD-NH2 (linker 2-8 via mXylylene; SMILES CSCC[C@H](NC(C)=O)C(=O)N[C@H]1CSCc2cccc(c2)CSC[C@@H](C(=O)N[C@@H](CC(=O)O)C(=O)N[C@@H](Cc2c[nH]cn2)C(=O)N[C@@H](Cc2ccccc2)C(=O)N[C@@H](CCCNC(=N)N)C(=O)N[C@@H](CC(=O)O)C(N)=O)NC(=O)[C@H](Cc2ccccc2)NC(=O)[C@H](CCC(=O)O)NC(=O)[C@@H]([C@H](C)O)NC(=O)[C@@H]2CCCN2C(=O)[C@@H]2CCCN2C1=O, also called 3BP-3178) [Ac-Met-[Cys(3MeBn)-Pro-Pro-thr-Glu-Phe-Cys]-Asp-His-Phe-Arg-Asp-NH2]"
7.1 pIC50 and 8 pIC50,7.1 pIC50 and 8 pIC50,,"Ac-MCPPTEF[dC]DHFRD-NH2 (linker 2-8 via mXylylene; SMILES CSCC[C@H](NC(C)=O)C(=O)N[C@H]1CSCc2cccc(c2)CSC[C@H](C(=O)N[C@@H](CC(=O)O)C(=O)N[C@@H](Cc2c[nH]cn2)C(=O)N[C@@H](Cc2ccccc2)C(=O)N[C@@H](CCCNC(=N)N)C(=O)N[C@@H](CC(=O)O)C(N)=O)NC(=O)[C@H](Cc2ccccc2)NC(=O)[C@H](CCC(=O)O)NC(=O)[C@H]([C@@H](C)O)NC(=O)[C@@H]2CCCN2C(=O)[C@@H]2CCCN2C1=O, also called 3BP-3182) [Ac-Met-[Cys(3MeBn)-Pro-Pro-Thr-Glu-Phe-cys]-Asp-His-Phe-Arg-Asp-NH2]"
> 8 pIC50,7.1 pIC50 and 8 pIC50,,"Hexanoyl-CPPTEFC[4Amb]R-NH2 (linker 1-7 via mXylylene; SMILES CCCCCC(=O)N[C@H]1CSCc2cccc(c2)CSC[C@@H](C(=O)NCc2ccc(C(=O)N[C@@H](CCCNC(=N)N)C(N)=O)cc2)NC(=O)[C@H](Cc2ccccc2)NC(=O)[C@H](CCC(=O)O)NC(=O)[C@H]([C@@H](C)O)NC(=O)[C@@H]2CCCN2C(=O)[C@@H]2CCCN2C1=O, also called 3BP-3303) [Hex-[Cys(3MeBn)-Pro-Pro-Thr-Glu-Phe-Cys]-Pamb-Arg-NH2]"
6.1 pIC50 and 7 pIC50,7.1 pIC50 and 8 pIC50,,"Ac-MCPPT[dE]FCDHFRD-NH2 (linker 2-8 via mXylylene; SMILES CSCC[C@H](NC(C)=O)C(=O)N[C@H]1CSCc2cccc(c2)CSC[C@@H](C(=O)N[C@@H](CC(=O)O)C(=O)N[C@@H](Cc2c[nH]cn2)C(=O)N[C@@H](Cc2ccccc2)C(=O)N[C@@H](CCCNC(=N)N)C(=O)N[C@@H](CC(=O)O)C(N)=O)NC(=O)[C@H](Cc2ccccc2)NC(=O)[C@@H](CCC(=O)O)NC(=O)[C@H]([C@@H](C)O)NC(=O)[C@@H]2CCCN2C(=O)[C@@H]2CCCN2C1=O, also called 3BP-3179) [Ac-Met-[Cys(3MeBn)-Pro-Pro-Thr-glu-Phe-Cys]-Asp-His-Phe-Arg-Asp-NH2]"
6.1 pIC50 and 7 pIC50,,6.1 pIC50 and 7 pIC50,"Ac-MC[dA]PTEFCDHFRD-NH2 (linker 2-8 via mXylylene; SMILES CSCC[C@H](NC(C)=O)C(=O)N[C@H]1CSCc2cccc(c2)CSC[C@@H](C(=O)N[C@@H](CC(=O)O)C(=O)N[C@@H](Cc2c[nH]cn2)C(=O)N[C@@H](Cc2ccccc2)C(=O)N[C@@H](CCCNC(=N)N)C(=O)N[C@@H](CC(=O)O)C(N)=O)NC(=O)[C@H](Cc2ccccc2)NC(=O)[C@H](CCC(=O)O)NC(=O)[C@H]([C@@H](C)O)NC(=O)[C@@H]2CCCN2C(=O)[C@@H](C)NC1=O, also called 3BP-3215) [Ac-Met-[Cys(3MeBn)-ala-Pro-Thr-Glu-Phe-Cys]-Asp-His-Phe-Arg-Asp-NH2]"
7.1 pIC50 and 8 pIC50,7.1 pIC50 and 8 pIC50,,"Ac-M[dC]PPTEF[dC]DHFRD-NH2 (linker 2-8 via mXylylene; SMILES CSCC[C@H](NC(C)=O)C(=O)N[C@@H]1CSCc2cccc(c2)CSC[C@H](C(=O)N[C@@H](CC(=O)O)C(=O)N[C@@H](Cc2c[nH]cn2)C(=O)N[C@@H](Cc2ccccc2)C(=O)N[C@@H](CCCNC(=N)N)C(=O)N[C@@H](CC(=O)O)C(N)=O)NC(=O)[C@H](Cc2ccccc2)NC(=O)[C@H](CCC(=O)O)NC(=O)[C@H]([C@@H](C)O)NC(=O)[C@@H]2CCCN2C(=O)[C@@H]2CCCN2C1=O, also called 3BP-3181) [Ac-Met-[cys(3MeBn)-Pro-Pro-Thr-Glu-Phe-cys]-Asp-His-Phe-Arg-Asp-NH2]"
